Consider four molecules from publication PMC4718548 (Structure (London, England : 1993), 2015).

Where only a bound is given, the exact number is not on record here.

The target of data set [1] is Mycobacterium tuberculosis ribosome large subunit 50S (Mycobacterium tuberculosis (endogenous in Mtb MC2 7000)) (UniProt A5U0A0). In words: co-sedimentation.
The target is the same in data set [2]. In words: cryo-EM structure.
Data set [3] deals with the molecule itself.
In data set [4] the target is Mycobacterium tuberculosis ribosome large subunit 50S (Mycobacterium tuberculosis (endogenous in Mtb MC2 7000)) (UniProt A5U0A0).

Mycobacterium tuberculosis ribosome large subunit 50S (Mycobacterium tuberculosis (endogenous in Mtb MC2 7000)), sequence (A5U0A0 whole entry, looked up): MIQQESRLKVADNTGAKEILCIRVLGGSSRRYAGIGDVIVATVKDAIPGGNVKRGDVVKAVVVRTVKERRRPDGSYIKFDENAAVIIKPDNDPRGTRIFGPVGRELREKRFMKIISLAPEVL

In the case of “Mycobacterium tuberculosis ribosome small subunit 30S (complex)”, the percent of 50S in the 70S form, without RsfS in data set [1] is above 70%.

B1: Mycobacterium tuberculosis ribosomal silencing factor RsfS, wild type, C-terminal His6 (natural protein)
chain: MTANREAIDMARVAAGAAAAKLADDVVVIDVSGQLVITDCFVIASGSNERQVNAIVDEVEEKMRQAGYRPARREGAREGRWTLLDYRDIVVHIQHQDDRNFYALDRLWGDCPVVPVDLSANSAGAQ
Turning to B1, the stoichiometry N (commonly a count of units in the complex or per binding partner) in data set [2] came out at 1.

B2: Mycobacterium tuberculosis RsfS E74A, C-terminal His6 (natural protein)
chain: MTANREAIDMARVAAGAAAAKLADDVVVIDVSGQLVITDCFVIASGSNERQVNAIVDEVEEKMRQAGYRPARRAGAREGRWTLLDYRDIVVHIQHQDDRNFYALDRLWGDCPVVPVDLSANSAGAQ
As for B2, the “stoichiometry N” value in data set [3] worked out at 2.

B3: Escherichia coli RsfS, wild type, C-terminal His6 (natural protein)
chain: MQGKALQDFVIDKIDDLKGQDIIALDVQGKSSITDCMIICTGTSSRHVMSIADHVVQESRAAGLLPLGVEGENSADWIVVDLGDVIVHVMQEESRRLYELEKLWS
The molecule B3 yielded an inhibition in the Mtb ribosome cell-free translation assay in data set [4] of 80%.
